Laboratory results: patent US20220378955A1 (ACTINIUM PHARMACEUTICALS, published 2022)
Blank lines part the entries; values can stand above or below the molecule they belong to.

What was measured:
mouse CD45 (mouse) = mouse CD45 (mouse) (UniProt P06800); assay: CD45+ cell-based binding assay of radiolabeled antibody
human CD45 = biological target: T1, human CD45 (human, UniProt P08575 26-1306); assay: flow cytometry on Cytotrol cells, against naïve BC8 as reference
T1 construct: whole, on cells; BC8 is said to recognize all human isoforms; also called leukocyte common antigen (LCA); T200
T1 sequence (looked up): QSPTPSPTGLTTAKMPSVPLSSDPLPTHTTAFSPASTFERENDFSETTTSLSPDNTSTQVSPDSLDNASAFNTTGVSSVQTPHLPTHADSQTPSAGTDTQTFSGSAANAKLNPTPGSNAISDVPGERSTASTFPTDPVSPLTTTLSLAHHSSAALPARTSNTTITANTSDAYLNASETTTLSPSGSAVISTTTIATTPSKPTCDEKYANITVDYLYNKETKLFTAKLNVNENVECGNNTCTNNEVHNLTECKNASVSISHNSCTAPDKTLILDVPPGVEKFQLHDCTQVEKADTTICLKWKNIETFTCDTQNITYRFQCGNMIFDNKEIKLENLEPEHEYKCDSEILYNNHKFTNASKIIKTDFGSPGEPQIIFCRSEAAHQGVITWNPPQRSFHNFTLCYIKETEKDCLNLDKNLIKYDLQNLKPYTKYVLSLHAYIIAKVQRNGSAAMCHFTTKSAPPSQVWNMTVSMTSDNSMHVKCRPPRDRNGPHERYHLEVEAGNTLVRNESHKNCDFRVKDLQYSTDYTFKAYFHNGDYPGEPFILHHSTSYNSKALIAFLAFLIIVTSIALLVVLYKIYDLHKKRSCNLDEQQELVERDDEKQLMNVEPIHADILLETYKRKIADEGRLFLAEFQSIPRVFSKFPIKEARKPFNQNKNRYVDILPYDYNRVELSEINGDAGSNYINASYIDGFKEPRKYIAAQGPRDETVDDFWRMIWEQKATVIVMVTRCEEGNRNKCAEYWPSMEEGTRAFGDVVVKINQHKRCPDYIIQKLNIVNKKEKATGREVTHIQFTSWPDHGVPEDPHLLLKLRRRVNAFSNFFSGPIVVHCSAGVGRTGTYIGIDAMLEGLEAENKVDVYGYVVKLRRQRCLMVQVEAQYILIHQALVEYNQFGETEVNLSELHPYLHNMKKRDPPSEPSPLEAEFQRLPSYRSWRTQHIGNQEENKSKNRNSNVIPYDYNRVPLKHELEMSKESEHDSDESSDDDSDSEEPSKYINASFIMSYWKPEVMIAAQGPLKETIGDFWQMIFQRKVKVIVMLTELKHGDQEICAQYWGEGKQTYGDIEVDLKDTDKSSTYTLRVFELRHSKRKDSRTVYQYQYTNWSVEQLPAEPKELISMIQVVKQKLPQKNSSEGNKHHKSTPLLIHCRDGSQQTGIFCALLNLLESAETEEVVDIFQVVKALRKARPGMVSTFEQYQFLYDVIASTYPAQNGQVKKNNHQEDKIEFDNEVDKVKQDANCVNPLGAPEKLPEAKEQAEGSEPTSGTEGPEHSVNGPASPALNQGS
Description: Cytotrol cells (Beckman Coulter) were initially used to determine the binding of naïve BC8 antibody to those cells versus control 18B7 antibody (nonspecific control antibody against the fungal polysaccharide glucuronoxylomannan) by flow cytometry (FIG. 13A). The cells were taken up in RPMI medium, and the secondary antibody was PE labeled rat anti-mouse IgG1 from Biolegend.
Finally, we performed the side by side comparison of the binding of DOTA-BC8 sample to Cytotrol cells by flow cytometry (FIG. 14B), followed by immediate radiolabeling of the same sample with ²²⁵Ac and binding of the radiolabeled sample to Cytotrol cells (FIG. 14A). The binding of the DOTA-BC8 to the cells by flow cytometry (around 60% of the naïve BC8 binding) matched that of radiolabeled ²²⁵Ac-DOTA-BC8 to Cytotrol cells.

mouse CD45 (mouse), sequence (P06800 26-1293): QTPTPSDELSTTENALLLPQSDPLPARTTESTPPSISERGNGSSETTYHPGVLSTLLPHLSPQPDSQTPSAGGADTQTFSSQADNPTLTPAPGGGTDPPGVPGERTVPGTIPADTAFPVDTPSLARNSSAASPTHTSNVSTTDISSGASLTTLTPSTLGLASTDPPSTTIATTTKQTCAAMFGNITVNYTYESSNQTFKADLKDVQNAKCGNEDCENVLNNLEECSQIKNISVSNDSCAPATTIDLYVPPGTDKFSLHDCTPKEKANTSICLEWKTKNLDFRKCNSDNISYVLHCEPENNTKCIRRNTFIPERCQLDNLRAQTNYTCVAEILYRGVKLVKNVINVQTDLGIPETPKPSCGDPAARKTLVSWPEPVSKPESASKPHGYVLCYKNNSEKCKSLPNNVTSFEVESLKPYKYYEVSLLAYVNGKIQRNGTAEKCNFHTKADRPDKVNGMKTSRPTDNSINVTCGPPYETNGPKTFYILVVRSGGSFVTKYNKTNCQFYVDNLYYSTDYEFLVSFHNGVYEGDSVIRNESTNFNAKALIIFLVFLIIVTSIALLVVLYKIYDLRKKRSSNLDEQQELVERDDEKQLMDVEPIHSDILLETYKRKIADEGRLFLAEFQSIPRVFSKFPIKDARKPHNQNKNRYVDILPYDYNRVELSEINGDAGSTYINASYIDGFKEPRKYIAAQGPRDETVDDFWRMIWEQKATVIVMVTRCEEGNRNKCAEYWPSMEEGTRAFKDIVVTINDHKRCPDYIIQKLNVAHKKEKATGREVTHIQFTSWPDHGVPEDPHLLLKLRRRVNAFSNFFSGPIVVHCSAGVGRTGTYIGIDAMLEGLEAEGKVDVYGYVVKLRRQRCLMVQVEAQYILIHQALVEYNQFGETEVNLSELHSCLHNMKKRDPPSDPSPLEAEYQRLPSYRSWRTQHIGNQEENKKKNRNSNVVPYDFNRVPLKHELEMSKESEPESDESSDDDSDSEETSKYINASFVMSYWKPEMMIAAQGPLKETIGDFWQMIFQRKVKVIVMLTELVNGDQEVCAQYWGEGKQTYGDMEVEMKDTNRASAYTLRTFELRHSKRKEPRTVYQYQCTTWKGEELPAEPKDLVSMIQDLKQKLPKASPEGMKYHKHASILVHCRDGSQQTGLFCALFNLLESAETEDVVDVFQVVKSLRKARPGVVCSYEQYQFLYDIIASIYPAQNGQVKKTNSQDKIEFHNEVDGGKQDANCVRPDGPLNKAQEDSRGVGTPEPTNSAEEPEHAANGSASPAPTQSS

immunoreactivity (mouse CD45 (mouse)): > 95%
Molecule: ^177Lu-labeled anti-mouse pan-CD45 antibody 30F11

immunoreactivity (mouse CD45 (mouse)): > 95%
Molecule: ^131I-labeled anti-mouse pan-CD45 antibody 30F11

binding relative to naïve BC8 (human CD45): ~60%
immunoreactivity relative to naïve BC8 (human CD45): ~70%
B1: DOTA-BC8 (BC8 conjugated with p-SCN-Bn-DOTA, batch A) (antibody, V domains shown)
VH: EVKLLESGGGLVQPGGSLKLSCAASGFDFSRYWMSWVRQAPGKGLEWIGEINPTSSTINFTPSLKDKVFISRDNAKNTLYLQMSKVRSEDTALYYCARGNYYRYGDAMDYWGQGTSVTVS
VL: DIALTQSPASLAVSLGQRATISCRASKSVSTSGYSYLHWYQQKPGQPPKLLIYLASNLESGVPARFSGSGSGTDFTLNIHPVEEEDAATYYCQHSRELPFTFGSGTKLEIKR
modifications: p-SCN-Bn-DOTA conjugated, sites not stated; p-SCN-Bn-DOTA conjugated, about 1.5 DOTA per antibody (batch A), sites not stated; Asn-141 partly deamidated to Asp
notes: Chelator conjugate of murine IgG1 BC8; also called unlabeled DOTA-BC8
